# Source: article PMC12017984
# Assays:
# [1] = target: Recombinant His-tagged human apolipoprotein A-IV, apoA-IV^T347S (human) (UniProt P06727); test: BLI
# [2] = target: Recombinant human apolipoprotein A-IV, apoA-IV^T347S, His tag-free (human) (UniProt P06727); test: ITC
# [3] = target: Recombinant human apolipoprotein A-IV, apoA-IV^WT, His tag-free (human) (UniProt P06727); test: ITC
substance,measurement,setting,value
Human platelet integrin αIIbβ3 (from UniProt P05106 27-788) (receptor),Kd,[1],0.397 µM
"Recombinant human apolipoprotein A-IV, apoA-IV^T347S, His tag-free (from UniProt P06727 21-396) (natural protein)",Kd,[2],102 µM
same,dH,[2],-34 kcal/mol
"Recombinant human apolipoprotein A-IV, apoA-IV^WT, His tag-free (from UniProt P06727 21-396) (natural protein)",Kd1,[3],0.63 µM
same,Kd2,[3],54 nM
same,dH1,[3],2.7 kcal/mol
same,dH2,[3],-27 kcal/mol
